Target: T1, NAC CoV2 Mosaic (SARS-COV-2)
T1 construct: also called NAC Mosaic (The Native Antigen Company)
Experiment: ForteBio

B1: SC2 antibody 3396 (antibody, V domains shown)
VH: GVQLVESGGGLVQPGRSLRVSCAASGFTFADYAMHWVRQAPGKGLEWVSGISWNSGNIAYADSVKGRFTISRDNAKNSLYLQMDSLRPDDTALYYCVKASTLYYYFYMDVWGKGTTVTVSS
VL: QSALTQPPSASGSPGQSVTISCTGTSSDVGGYDYVSWYQQHPGKAPKFMIYEVSKRPSGVPDRFSGSKSGNTASLTVSGLQAEDEADYYCCSYAGSNNYVFGTGTKVTVLG
notes: also called Anti-SARS-COV-2 antibody 3396
B1 showed a Kd of 21 nM.

Reference: patent US20240190946A1 (AUGMENTA BIOWORKS, published 2024)
